Protein production data for 25 sequences are collected here from a protein production outcome set (Wang et al. 2014).

A short description of this data set: label from the status in PepcDB records.

“MANLPTVLVTGASGRTGQIVYKKLKEGSDKFVAKGLVRSAQGKEKIGGEADVFIGDITDADSINPAFQGIDALVILTSAVPKMKPGFDPTKGGRPEFIFEDGQYPEQVDWIGQKNQIDAAKVAGVKHIVVVGSMGGTNPDHPLNKLGNGNILVWKRKAEQYLADSGTPYTIIRAGGLLDKEGGVRELLVGKDDELLQTDTKTVPRADVAEVCIQALLFEEAKNKAFDLGSKPEGTSTPTKDFKALFSQVTSRF”: the protein production entry is “not failed”.

Consider “MANNELQIAGSQGELRIRPYEHHAKYYETDQMGIIHHSNYVKWMEEARLDLMDQIGLNYRQMEDMEIISPVLSISVEYHSMVHFDDTVVIYTKLLKYNGIKMELEYVMKDKETGELRTTAKSSHCFLNKSGKPISLKRMYPELDTKFFEFKEA”, for which the protein production entry is given as “failed”.

Consider “MANPPSQEADHLVEAFRYTVAKLFLQQAQKDHLKADKEAIFVLSELLLGYIEILTADLEAFCRHGKRTTITADDVLLCCRRNENLVSRHMLINRAAAEISSFP”, for which the protein production entry is on record as “failed”.

“MANRQRGVALIIVLMLLAIMATIAATMSERLFLQFQRGSNQIHYQQAYWYSVGVEALAEVGIEQSYKDSDTINLSQPWAIKEQVYPLDYGQAAGRIWDKQACFNLNVLSRVQPTGQQTTRPYLVQVLQRLLEESDVEPYQAEVIADSTWEYIDSDSTVRSTTGVEDSTYESMKPSYLAANGWMADKTELRAVYQVSGEIYQKIEPLVCAIPSDDWRLNVNTIEVEQAPILVAMFSPNLSSSDAVQLIEKRPFDGWDSVDEFLAESELTGLSDDVKKNAKGYLGVDSSFFELDAQVLVDDSRVRIRSLLQSTNRETVTVVRRRFGGISERVSDRSAE”: the protein production result is “failed”.

“MANVFLISSRNRRSMRTTTESKPKNLTVKRSDSSSDYNYSCKKHPKHRQSPGICSLCLNESLSKLSSEFYDYSSSMSSSSLAKTMSSCSSASSESESDFSSTAISSYYSSVSSCLSPLQHRYSEIVVNKKKKKHVKKQSFLSRLFLKQRIQTKAVIGWHMTLQLAIQLMYGKRKKTCHASFIQVWY”: the protein production entry is given as “failed”.

With “MAPAPAAEFWEARYRDTGRVWSGRPNELLVQEAGGLAPGTALDLGCGEGADAVWLASRGWRVTGVDISATALERAAGHADGAGVGDRVLWERHELGPSFPEGSFDLVSAHYLQSPVALDQQAVLRAAARAVAPGGTLLVVMHAGWPSWQTEPPFDAAFPTLDGVLAELALPEGEWSVETRRTARRPLEHHHHHH”, the protein production result is “failed”.

Turning to “MAPAPAAEFWEARYRDTGRVWSGRPNELLVQEAGGLAPGTALDLGCGEGADAVWLASRGWRVTGVDISATALERAAGHADGAGVGDRVLWERHELGPSFPEGSFDLVSAHYLQSPVALDQQAVLRAAARAVAPGGTLLVVMHAGWPSWQTEPPFDAAFPTLDGVLAELALPEGEWSVETRRTARRPSVAPDGTEGFREDHVWRLKRAVLEHHHHHH”, the protein production entry is recorded as “not failed”.

As for “MAPIFRNYRFAIGAFAVIMLILLIKTSSIGPPSIARTVTPNASIPKTPEDISILPVNDEPGYLQDSKTEQNYPELADAVKSQTSQTCSEEHKYVIMIDAGSTGSRVHIYKFDVCTSPPTLLDEKFDMLEPGLSSFDTDSVGAANSLDPLLKVAMNYVPIKARSCTPVAVKATAGLRLLGDAKSSKILSAVRDHLEKDYPFPVVEGDGVSIMGGDEEGVFAWITTNYLLGNIGANGPKLPTAAVFDLGGGSTQIVFEPTFPINEKMVDGEHKFDLKFGDENYTLYQFSHLGYGLKEGRNKVNSVLVENALKDGKILKGDNTKTHQLSSPCLPPKVNATNEKVTLESKETYTIDFIGPDEPSGAQCRFLTDEILNKDAQCQSPPCSFNGVHQPSLVRTFKESNDIYIFSYFYDRTRPLGMPLSFTLNELNDLARIVCKGEETWNSVFSGIAGSLDELESDSHFCLDLSFQVSLLHTGYDIPLQRELRTGKKIANKEIGWCLGASLPLLKADNWKCKIQSA”, the protein production result is on record as “failed”.

With “MAPKDQAADMDYDQTKKMVVDILKTDDGKKAIKELLNDDAMNEALVIDQDAIKGTIEKTLTSKKGEEFWKNIFEDTDFAEGFAKTLQTEHEKVIKKLMKDPDYQKMLMSVMQDPGMDKKYSQLAKSQEFRSYLEEVINETLSSPLYKKQFEDELKKAAKDTAKESELEHHHHHH”, the protein production entry is “not failed”.

For the sequence “MAPLLMILAAQLLIASGNLLVKLLETNTPVFQLVLYRQLFATLLVLPFVWHLQGNLKLSPFYKVHLSRALLIGLGNAIFMLAVLHLPLATVTAVIYSSPLILLLLSAFFLNERIGYRRSVAGLIGFTGILLISQPTEVNLYIGLAFFGAMISAINSLILKAYSTHEHPFSTLFWSNAFAMVFLIPATWYEGANFSLPVAQVGLTLGVFYVGMTYLIIHAYRRADASQMAPVEYTGLIFAALLGWWFLDETLSVVVCIGIGLVIFSSLLPSYGELKAKWKSRRR”, the protein production entry is “failed”.

On to “MAPLSFEVRSVSVLVLVLAVSAAFCLGIGFVLQQNAAQHAPLSDFLSPRLLLDLMHVRRWLGGIGFMVVGMVLGAVALAHGELSLVEPLLATNLLFALGLSRRQTKQPLGRQGWAGLALLAGGVTAFIVAGQPTGGDAVTNPLRHWVIIGVMVGFALLLTTYAKQSRLSAAPVLLSLAAGLLYGVQDALTRVSGQRFSEGGWPELVTGWQPYAVLALGVTGLVLVQSAFETAPLRMSLPALTAAQPLAGIVCGVGFLGDQLRTDTGALAWEAAGLAAVVLGIVLLGLHPAMPRGSAEAERQRDLQPH”, for which the protein production result is on record as “failed”.

For “MAPNASCLCVHVRSEEWDLMTFDANPYDSVKKIKEHVRSKTKVPVQDQVLLLGSKILKPRRSLSSYGIDKEKTIHLTLKVVKPSDEELP”, the protein production result was “failed”.

With “MAPPTAAPEPNTVPETSPTGHRMFSRIRLATPTDVPFIHKLIHQMAVFERLTHLFVATESGLASTLFNSRPFQAVTVFLLEISPSPFPTTHDASSPDFTPFLETHKVDLPIEDPDREKFLPDKLNDVVVAGFVLFFPNYPSFLAKQGFYIEDIFMREPYRRKGFGKLLLTAVAKQAVKLGVGRVEWIVIDWNVNAINFYEQMGAQVFKEWRLCRLTGDALQAIDKLNI”, the protein production result is reported as “failed”.

Consider “MAPQKPVSAAQTAQHSAVWIDVRSEQEFSEGHLHNAVNIPVDQIVRRIYEAAPDKDTPVNLYCRSGRRAEAALQELKKAGYTNVANHGGYEDLLKKGLEHHHHHH”, for which the protein production result is listed as “not failed”.

As for “MAPQSHGRSRINSIDMMRGLVMLIMLLDHVREQFFLHMQVSDPMDLSTTTWDLFVSRFAAHFCAPVFVFLTGVSAWLYANRGHGEPRSVRVFLLKRGLFLIALEVLVINFSWMGNYHTLWLQVIWVIGLSMLALAALIKLPRLWMALLGLLIVFGHNLLSPIHFEPDTWGYSLWTILHDRGYLIAEGDLKLKVSYPLLPWIGVILLGYVAGPLFSRKFEAWQRQQRLMLLGVGCFAFFCLLRGFNLYGETLPWQVGESIGQTLMSVFNLTKYPPSLSFLLVTLGGMFCGLVLFERYFAAGSLFSWIGQKLAVFGSVPMFFYILHLYVLLLLYLVAKGLFGANHGELFGVAHMGWVWLISLVLIPLLYYPVSWFSRYKSQSQQAWLKYL”, the protein production result is recorded as “failed”.

Consider “MAPSSSTFKQVADDWLKQYANDVKVSSVRAREKAIQHAIERFNTKPIQTIKKHDYQRFVDDISAQYSKNYVDSIVASTNMIFKYAYDTRLIKAMPSEGIKRPKKKLEHHHHHH”, for which the protein production entry was “not failed”.

On to “MAPTFSPNPQNFTKKDKTKAERRKPEEGDDDHHHNASQLFLNPWQTRAARCRSLANGMLMTLHQLRGLLLSSTKLETRRKEVENLTHQGKMNLDIIKMGKFLRNPPKNGFAVYAQNKWRGVCLGRSFIYI”, for which the protein production result is recorded as “failed”.

On to “MAQAPDSSVPVRMVVDLTVDDYAAFTAYAYQRPALRRRRHASHLRFAVLLAAGLLAVILLRVWDGRQLDWGAALPAYAQALVVGLAVFALLAVGYEYALPRLARGNVRRALGRQPDNPFLGRHTLDFGPRGVDDAAAGASGTMPWEAVGQVEETASHLYLFISPLQGVIIPKRGQSADVLQAVRAQLRAHVPGAALADAADKQ”, for which the protein production result is given as “failed”.

As to “MAQGFKITYTDQACLLDIQDPQNKESQSFHYALVPRGVEAENIPADYTVIETPIRSVICMTSLQLSNFIKLEELDAVVGITSTRHLFNKKINDRLKDGSIHKIGIEGNFDNEVIMSVNPDLILISPFKRGGYDALKEVGIPLMPHLGYKEMTPLGQAEWIKFVGLLLGREDKANKQFAAIKKRYNELKELTGLEHHHHHH”, the protein production result was “failed”.

As to “MAQHHGHLGAVYDAAGPQEVAALYDRWAETYESEMARAGYRHPAIGVALLARHLPRGARPLLDAGAGTGLLGEWLEIVGYPEVEALDISAGMLEVARAKGIYARCHNLPLGAALPFRDGAFAGIISTGVFTTGHVGAEALPELLRICRPGGVIVLTVKESLWQGGFAVSLEAAVASGLEHHHHHH”, the protein production result is recorded as “failed”.

As to “MAQKDRNTRIAQKAFEMVDKVYGKSPNLTTKPYDPKDESPSRFTQSAYKYGGPKIYTVREATSTYSYGRAIYMYAPESTIKEPVVSHPTEHIQYYGGTRPFVANPNRFERPKGRVINCDEAVQLYGGVLIKEFRK”, the protein production result is given as “failed”.

As for “MAQKILVEQVVKRKAIVVQPKDTVDRVAKILSRNKAGSAVVMEGDEILGVVTERDILDKVVAKGKNPKEVKVEEIMTKNPVKIEYDYDIEDVIELMTEKGVRRVLVTKFGKPIGFVTAADILAALASHNHEEEEEEREEESEVYGICEVCGQYGALYKVYHEGRELWVCETCKDLIEGR”, the protein production result was “not failed”.

Take “MAQKKGFKYRFYPTDKQKAVLAKVFGHTRYVWNWALELRTDAYYEEGESLSYTDTAKRLTDLKKEKTWLREVSSVALQQKLRDLDQAFQNFFDGRCGYPNFKSKHDKQAARFASNAFTLHGKKLSVAKVPGSLNVRWSRDLPDEAKPTSVTLTKDPAGRYFVSITSAVPEPDPEPTVTDGDGNQKSVGIDLGIADIVVTSDGWKSGNPRHLENDLYRLRKAQRRLSRKEKNGSDGPSENWKKQKRRVAKIHAEIKDKREDFLHKLSRRVVDENQVIALESLSVKGMQQNRSLARPISDTGWSTLVRMIEYKAKEAGRTVVKIDRWFPSTKRCSECGYVTESKPLSVRSWDCPRCDTTHDRDINAAKNIRTAGLAGAFQKANDSGGHSKTRDAFRIERFGANAHGPVNE”: the protein production entry is listed as “failed”.

In the case of “MAQKLYPPIHPGEILMEDFIKGFGLTQNKVAVSIGVPPRRINEIVHGKRSITADTALRLGRYFGIDPQFWLSLQTQYELELDRDAGAATYAQITPLKVA”, the protein production entry is reported as “failed”.

Consider “MAQLTPLDISFIAGYLLLTLLVGLFFSRRASENVGEFFLSGRKLPWWIAGTGMVATTFAADTPLAVAGFVAKNGIAGNWVWWTFVSGGMLTVFFFARLWRRANILTDLEFIELRYSGKAASFLRGFKAVYFGLFINAVIIGWVNLAMFKIIKIMIPGLDPQLTIVGLVIFTAIYSGMSGLWGVSITDAVQFVIAMAGCIILAVLAVNSPQVTAAGGLKQALPDWMFDFFPSFSSTVNTSATGAYALPFTAFAAMAFVQWWASWYPGAEPGGGGYIAQRMMSAKDEKNSLLATLWFTIAHYCVRPWPWIVVGLASLVMFPNLPAGQKEDGFVHVMNAVLPAGLKGLLIAAFMAAYMSTLSTHLNWGTSYLINDLYKRFIKREAEQNHYVLMSRIVTAVTAIFALYITFYVLETITGAWEFIIQCGAGTGFVLIMRWFWWRLNAWSEITSMVAPIVAYSYINQFTTIVFPESIYIIVLFTITCTLAVTWLTKPTDREKLHAFYRTTRVGGALWKPVADEMPDVKGDTGFPALFADWFFGIVLVYATLFGTGKLIFGEPVAAALYYAAGALAGVMIYRDLSKRNWKTFD”, for which the protein production entry is “failed”.
